Assays:
[1] = test system: GFP double loop insertion mutant at positions 157-158 and 174-175 with GGGG-LETD-GGGGG (caspase 8 sites)
[2] = test system: GFP single insertion mutant D174-G175 (GGGGFFRSGGGG inserted)
[3] = test system: GFP single insertion mutant K102-D103 (GGGGFFRSGGGG inserted)
[4] = test system: GFP single insertion mutant K157-Q158 (GGGGFFRSGGGG inserted)
[5] = test system: substitution mutants (GFP sequence substituted with FRS at various positions; fifteen fluorescent of twenty)
[6] = test system: GFP single insertion mutant G117-D118 (GGGGFFRSGGGG inserted)
[7] = test system: recombinant GFP-His protein (wild type GFP)
[8] = test system: GFP single insertion mutant T39-Y40 (GGGGFFRSGGGG inserted)
[9] = test system: GFP double insertion mutant K157-Q158 and D174-G175 (cathepsin L sites)

Chain of cathepsin L (chain, as listed by the source): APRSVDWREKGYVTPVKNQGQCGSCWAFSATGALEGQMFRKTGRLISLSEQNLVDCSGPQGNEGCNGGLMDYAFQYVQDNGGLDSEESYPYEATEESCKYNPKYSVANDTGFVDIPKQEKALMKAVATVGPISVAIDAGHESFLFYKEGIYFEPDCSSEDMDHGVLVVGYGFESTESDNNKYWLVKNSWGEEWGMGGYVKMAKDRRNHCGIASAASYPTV

For caspase 8, the “Cleavage at sequence introduced” value [1] was “(yes)”.

For cathepsin L, the “Cleavage at sequence introduced” value [2] was “Yes”, the “Cleavage at sequence introduced” value [3] was “Yes” and the “Cleavage at sequence introduced” value [4] was “Yes”. For the same substance, the “specific cleavage (SDS-PAGE)” value [5] was “fifteen mutants were fluorescent and therefore properly folded, but only one of them was specifically cleaved by cathepsin L”, the “Cleavage at sequence introduced” value [6] was “No” and the “GFP fluorescence and SDS-PAGE band on incubation with 400 nM cathepsin L at pH 5.5 and 4.8” value [7] was “A time-dependent decrease in GFP fluorescence was observed (FIG. 10A), with concommitant disappearance of the GFP band on SDS-PAGE”. The “Cleavage at sequence introduced” value [8] was “Yes” and the “Cleavage at sequence introduced” value [9] was “(yes)”.
